Assay results taken from patent US20210269780A1.

Target: G3BP (human) (UniProt Q13283)

| percentage of cells with PABPC1-positive stress granules after sodium arsenite | Substance |
| --- | --- |
| 46 % of cells | G3BPdi-mCherry-sspB (from UniProt Q13283) |
| 85 % of cells | mCherry-sspB |
